How the values were obtained:
TRPP3-mCherry (human) = TRPP3-mCherry (human) (UniProt Q9P0L9); experiment: single-molecule photobleaching
SEC-MALS = molecular target: the molecule itself; experiment: SEC-MALS
[1] = molecular target: the molecule itself; experiment: single-molecule photobleaching
PKD1L3-mCherry = PKD1L3-mCherry (mouse, UniProt Q2EG98 21-2151); experiment: single-molecule photobleaching
PKD1L3-mCherry, sequence (Q2EG98 21-2151): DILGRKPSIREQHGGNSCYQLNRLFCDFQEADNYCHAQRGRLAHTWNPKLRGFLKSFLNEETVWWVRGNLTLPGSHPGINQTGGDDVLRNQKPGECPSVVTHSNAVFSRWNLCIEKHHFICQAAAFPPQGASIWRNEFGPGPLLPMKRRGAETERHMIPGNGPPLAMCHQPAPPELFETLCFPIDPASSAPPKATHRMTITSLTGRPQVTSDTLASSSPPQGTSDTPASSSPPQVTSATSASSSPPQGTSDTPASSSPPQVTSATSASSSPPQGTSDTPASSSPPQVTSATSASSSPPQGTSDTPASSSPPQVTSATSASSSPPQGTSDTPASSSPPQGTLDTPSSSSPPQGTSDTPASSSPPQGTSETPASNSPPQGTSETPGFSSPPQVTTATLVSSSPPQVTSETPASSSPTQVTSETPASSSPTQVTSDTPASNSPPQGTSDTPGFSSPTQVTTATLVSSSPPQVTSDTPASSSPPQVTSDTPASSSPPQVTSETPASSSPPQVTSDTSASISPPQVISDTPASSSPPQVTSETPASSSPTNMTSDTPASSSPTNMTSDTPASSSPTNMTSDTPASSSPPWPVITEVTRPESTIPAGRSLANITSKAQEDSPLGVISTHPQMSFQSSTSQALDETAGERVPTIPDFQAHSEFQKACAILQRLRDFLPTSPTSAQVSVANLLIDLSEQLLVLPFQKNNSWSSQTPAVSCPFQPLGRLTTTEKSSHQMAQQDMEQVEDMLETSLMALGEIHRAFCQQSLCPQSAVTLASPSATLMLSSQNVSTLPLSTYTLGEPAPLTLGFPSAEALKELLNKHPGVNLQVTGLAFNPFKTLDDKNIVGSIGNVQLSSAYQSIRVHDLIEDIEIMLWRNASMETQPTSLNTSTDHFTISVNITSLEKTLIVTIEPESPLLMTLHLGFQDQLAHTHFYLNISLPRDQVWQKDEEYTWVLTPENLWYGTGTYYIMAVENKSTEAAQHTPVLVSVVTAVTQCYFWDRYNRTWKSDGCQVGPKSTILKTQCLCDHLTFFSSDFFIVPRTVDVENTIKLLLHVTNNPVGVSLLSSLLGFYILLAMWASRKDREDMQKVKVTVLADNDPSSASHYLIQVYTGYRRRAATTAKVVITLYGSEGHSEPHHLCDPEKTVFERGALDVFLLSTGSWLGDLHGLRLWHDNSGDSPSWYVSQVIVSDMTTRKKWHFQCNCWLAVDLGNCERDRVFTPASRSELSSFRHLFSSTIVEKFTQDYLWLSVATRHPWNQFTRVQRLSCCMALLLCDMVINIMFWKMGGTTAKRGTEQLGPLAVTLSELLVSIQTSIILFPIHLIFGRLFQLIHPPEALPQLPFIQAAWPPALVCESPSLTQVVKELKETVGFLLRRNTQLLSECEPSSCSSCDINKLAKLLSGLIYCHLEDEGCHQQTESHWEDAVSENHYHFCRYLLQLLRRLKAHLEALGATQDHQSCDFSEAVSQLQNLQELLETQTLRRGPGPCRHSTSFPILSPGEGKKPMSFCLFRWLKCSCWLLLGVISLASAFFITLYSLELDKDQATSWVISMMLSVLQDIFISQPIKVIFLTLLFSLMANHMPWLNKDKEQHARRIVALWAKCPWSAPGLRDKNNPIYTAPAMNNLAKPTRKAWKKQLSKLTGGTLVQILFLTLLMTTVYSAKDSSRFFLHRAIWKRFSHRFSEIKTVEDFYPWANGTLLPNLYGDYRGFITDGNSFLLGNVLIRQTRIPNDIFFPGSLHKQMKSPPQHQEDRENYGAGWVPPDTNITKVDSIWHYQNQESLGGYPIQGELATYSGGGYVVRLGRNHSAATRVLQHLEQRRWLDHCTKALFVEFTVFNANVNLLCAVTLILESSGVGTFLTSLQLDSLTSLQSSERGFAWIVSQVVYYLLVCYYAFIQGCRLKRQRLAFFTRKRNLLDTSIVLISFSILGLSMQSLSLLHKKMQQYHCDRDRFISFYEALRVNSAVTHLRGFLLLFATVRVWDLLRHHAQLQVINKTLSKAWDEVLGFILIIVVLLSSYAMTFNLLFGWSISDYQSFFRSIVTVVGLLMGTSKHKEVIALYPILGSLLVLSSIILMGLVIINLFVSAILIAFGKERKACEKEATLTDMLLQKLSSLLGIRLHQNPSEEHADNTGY

## PKD1L3-EGFP, Q2EG98 21-2151
TRPP3-mCherry (human)
  stoichiometry N: 1

B1: MBP-TRPP3_CT (domain or fragment)
chain: KEELAGQKDELQLSDLLKQGYNKTLLRLRLRKERVSDVQKVLQGGEQEIQFEDFTNTLRELGHAEHEITELTATFTKFDRDGNRILDEKEQEKMRQDLEEERVALNTEIEKLGRSIVSSPQGKSGPEAARAGGWVSGEEFYMLTRRVLQLETVLEGVVSQIDAVGSKLKMLERKGWLAPSPGVKEQAIWKHPQPAPAVTPDPWGVQGGQESEVPYKREEEALEERRLSRGEIPTLQRS
SEC-MALS
  stoichiometry N: 3

B2: TRPP3-EGFP (natural protein)
chain: MNAVGSPEGQELQKLGSGAWDNPAYSGPPSPHGTLRVCTISSTGPLQPQPKKPEDEPQETAYRTQVSSCCLHICQGIRGLWGTTLTENTAENRELYIKTTLRELLVYIVFLVDICLLTYGMTSSSAYYYTKVMSELFLHTPSDTGVSFQAISSMADFWDFAQGPLLDSLYWTKWYNNQSLGHGSHSFIYYENMLLGVPRLRQLKVRNDSCVVHEDFREDILSCYDVYSPDKEEQLPFGPFNGTAWTYHSQDELGGFSHWGRLTSYSGGGYYLDLPGSRQGSAEALRALQEGLWLDRGTRVVFIDFSVYNANINLFCVLRLVVEFPATGGAIPSWQIRTVKLIRYVSNWDFFIVGCEVIFCVFIFYYVVEEILELHIHRLRYLSSIWNILDLVVILLSIVAVGFHIFRTLEVNRLMGKLLQQPNTYADFEFLAFWQTQYNNMNAVNLFFAWIKIFKYISFNKTMTQLSSTLARCAKDILGFAVMFFIVFFAYAQLGYLLFGTQVENFSTFIKCIFTQFRIILGDFDYNAIDNANRILGPAYFVTYVFFVFFVLLNMFLAIINDTYSEVKEELAGQKDELQLSDLLKQGYNKTLLRLRLRKERVSDVQKVLQGGEQEIQFEDFTNTLRELGHAEHEITELTATFTKFDRDGNRILDEKEQEKMRQDLEEERVALNTEIEKLGRSIVSSPQGKSGPEAARAGGWVSGEEFYMLTRRVLQLETVLEGVVSQIDAVGSKLKMLERKGWLAPSPGVKEQAIWKHPQPAPAVTPDPWGVQGGQESEVPYKREEEALEERRLSRGEIPTLQRS
[1]
  stoichiometry N: 3
PKD1L3-mCherry
  stoichiometry N: 3
